Ends that are not written are not given here. * marks the point of attachment. Biotin = O=C1N[C@H]2[C@H](CS[C@H]2CCCCC(=O)*)N1
T1: biotinylated OprF1 synthetic peptide (P. aeruginosa)
T1 construct: also called OprF1-B; OprF1-Biotin
T1 peptide: Biotin-GTYETGNKKVH

B1: OBP12 peptide-quantum dot conjugate (peptide)
peptide: PKRTPRH
modifications: also: conjugated to quantum dot
notes: The summary and claims describe a C-terminal three-glycine plus cysteine linker to an amine-functionalized quantum dot; also called QD545-OBP12; OBP12-QD545
B2: monoclonal M13 phage displaying OBP9 (QMLLRLP) (peptide)
chain: QMLLRLP
notes: also called OprF-specific bacteriophage; not shown: P3 coat protein of M13 bacteriophage (Ph.D.-7 library)
B3: monoclonal M13 phage displaying OBP11 (PIKTNRK) (peptide)
chain: PIKTNRK
notes: as for B2
B4: monoclonal M13 phage displaying OBP12 (PKRTPRH) (peptide)
chain: PKRTPRH
notes: as for B2
B5: OBP11 peptide-quantum dot conjugate (peptide)
peptide: PIKTNRK
modifications: also: conjugated to quantum dot
notes: The summary and claims describe a C-terminal three-glycine plus cysteine linker to an amine-functionalized quantum dot; also called QD545-OBP11; OBP11-QD545
B6: monoclonal M13 phage displaying OBP6 (NMTNPPP) (peptide)
chain: NMTNPPP
notes: as for B2
B7: monoclonal M13 phage displaying OBP4 (RRSNSQL) (peptide)
chain: RRSNSQL
notes: as for B2
B8: monoclonal M13 phage displaying OBP7 (QITLRST) (peptide)
chain: QITLRST
notes: as for B2

Tests used:
[1] = target: T2, OprF outer membrane protein on A. venetianus cells (A. venetianus); assay: fluorometry of cells recovered from spiked 1 L Jet A fuel and labeled with 1.5 uM peptide-QD545, at the LOD of 5 x 10^5 CFU
T2 construct: whole, on cells; Whole bacterial cells were labeled

[2] = target: T3, OprF outer membrane protein on P. stutzeri cells (P. stutzeri); assay: as above
T3 construct: whole, on cells; whole bacterial cells were labeled

[3] = target: T1, biotinylated OprF1 synthetic peptide; assay: pooled monoclonal phages pulled down on biotinylated OprF1 in Bushnell-Haas with 1% Jet-A; unamplified eluate, share of 30 sequenced clones

Row | Binder | FLUORESCENCE (RFU) [1] | FLUORESCENCE (RFU) [2] | % Abundance [3]
1 | B1 | 580 RFU | 12200 RFU | 
2 | B2 |  |  | 3%
3 | B3 |  |  | 10%
4 | B4 |  |  | 3%
5 | B5 | 292 RFU | 255 RFU | 
6 | B6 |  |  | 10%
7 | B7 |  |  | 33%
8 | B8 |  |  | 10%

— patent publication US20180224449A1 (GOVERNMENT OF THE UNITED STATES AS REPRESENTED BY THE …, published 2018)
